The values that follow come from patent publication US20110195090A1.

Usually pEC50 stands for the EC50 on a negative log10 scale, so that one unit is a factor of ten. A higher pEC50 goes with a low EC50.

Test [1] addresses Bal gp120 (HIV-1 isolate Bal). Nature of the test: ELISA, bal gp120 coated, scFv-Fc. (In an ELISA, binding on a coated surface is turned into a signal by an enzyme label.)
For test [2], the target named is Bal gp120 (HIV-1 isolate Bal). Nature of the test: ELISA, bal gp120 coated, scFv.

pEC50: −log10 of the molar value.

Substance b12 A52P/G53Y scFv-Fc (Fc fusion) had a pEC50 in test [1] of 7.53.
Take b12 G53Y scFv-Fc (Fc fusion): the pEC50 in test [1] was < 6.00.
In turn, mature b12 scFv-Fc (Fc fusion) gave a pEC50 in test [1] of 9.40.
mature scFv b12 showed a pEC50 in test [2] of 8.89.
Still for that read-out and setting: to scFv b12 germline mutant A52P/G53Y belongs 7.06.
The same measure, in the same setting: to scFv b12 germline mutant G53Y belongs < 6.00.
